B1: Succinate dehydrogenase [ubiquinone] iron-sulfur subunit, mitochondrial (Homo sapiens), P21912 (parent)
chain: MAAVVALSLRRRLPATTLGGACLQASRGAQTAAATAPRIKKFAIYRWDPDKAGDKPHMQTYEVDLNKCGPMVLDALIKIKNEVDSTLTFRRSCREGICGSCAMNINGGNTLACTRRIDTNLNKVSKIYPLPHMYVIKDLVPDLSNFYAQYKSIEPYLKKKDESQEGKQQYLQSIEEREKLDGLYECILCACCSTSCPSYWWNGDKYLGPAVLMQAYRWMIDSRDDFTEERLAKLQDPFSLYRCHTIMNCTRTCPKGLNPGKAIAEIKKMMATYKEKKASV
partner: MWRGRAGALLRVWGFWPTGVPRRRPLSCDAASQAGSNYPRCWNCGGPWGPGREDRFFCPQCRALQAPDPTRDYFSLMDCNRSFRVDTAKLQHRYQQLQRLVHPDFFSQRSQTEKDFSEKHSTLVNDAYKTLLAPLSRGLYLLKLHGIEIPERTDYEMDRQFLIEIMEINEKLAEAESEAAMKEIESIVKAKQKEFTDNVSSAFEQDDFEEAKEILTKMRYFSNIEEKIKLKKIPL

Variants of: B1
Conditions: with hsc20_human HSCB

effect of a mutation on the interaction	Variant
disrupting interaction strength	MAAVVALSLRRRLPATTLGGACLQASRGAQTAAATAPRIKKFAAYRWDPDKAGDKPHMQTYEVDLNKCGPMVLDALIKIKNEVDSTLTFRRSCREGICGSCAMNINGGNTLACTRRIDTNLNKVSKIYPLPHMYVIKDLVPDLSNFYAQYKSIEPYLKKKDESQEGKQQYLQSIEEREKLDGLYECILCACCSTSCPSYWWNGDKYLGPAVLMQAYRWMIDSRDDFTEERLAKLQDPFSLYRCHTIMNCTRTCPKGLNPGKAIAEIKKMMATYKEKKASV [I44A]

Variants of: B1
Conditions: with hsc20_human HSCB
Remark: another data set of the same source

effect of a mutation on the interaction	Variant
disrupting interaction	MAAVVALSLRRRLPATTLGGACLQASRGAQTAAATAPRIKKFAIYRWDPDKAGDKPHMQTYEVDLNKCGPMVLDALIKIKNEVDSTLTFRRSCREGICGSCAMNINGGNTLACTRRIDTNLNKVSKIYPLPHMYVIKDLVPDLSNFYAQYKSIEPYLKKKDESQEGKQQYLQSIEEREKLDGLYECILCACCSTSCPSYWWNGDKYLGPAVLMQAYRWMIDSRDDFTEERLAKLQDPFSLYRCHTIMNCTRTCPKGLNPGKAIAEIKKMMATYKEAAASV [K276A;K277A]
disrupting interaction strength	MAAVVALSLRRRLPATTLGGACLQASRGAQTAAATAPRIKKFAIYRWDPDKAGDKPHMQTYEVDLNKCGPMVLDALIKIKNEVDSTLTFRRSCREGICGSCAMNINGGNTLACTRRIDTNLNKVSKIYPLPHMYVIKDLVPDLSNFYAQYKSIEPYLKKKDESQEGKQQYLQSIEEREKLDGLYECILCACCSTSCPSYWWNGDKYLGPAVLMQAYRWMIDSRDDFTEERLAKLQDPFSLYRCHTIMNCTRTCPKGLNPGKAIAEIAAMMATYKEKKASV [K267A;K268A]

Variants of: B1
Conditions: with hsc20_human HSCB
Remark: another data set of the same source

effect of a mutation on the interaction	Variant
disrupting interaction strength	MAAVVALSLRRRLPATTLGGACLQASRGAQTAAATAPRIKKFAIYRWDPDKAGDKPHMQTYEVDLNKCGPMVLDALIKIKNEVDSTLTFRRSCREGICGSCAMNINGGNTLACTRRIDTNLNKVSKIYPLPHMYVIKDLVPDLSNFYAQYKSIEPYLKKKDESQEGKQQYLQSIEEREKLDGLYECILCACCSTSCPSYWWNGDKYLGPAVLMQAYRWMIDSRDDFTEERLAKLQDPFSAYRCHTIMNCTRTCPKGLNPGKAIAEIKKMMATYKEKKASV [L240A]

Reference: IntAct's records for PubMed 24606901
